Common to all, as to assay: cell-based or functional assay
In assay [1] the target is T1, FcγIIIA Receptor on the effector cells (CD16 / FcγRIII) (human, UniProt P08637 17-254).
The target of assay [2] is T1, FcγIIIA Receptor on the effector cells …. This is another data set of the same source.
Assay [3] shares this target. The source holds these as a separate data set.
For assay [4], the target named is C1q Receptor in the complement system (rabbit serum as the source of complement) (rabbit).

T1 sequence (P08637 17-254): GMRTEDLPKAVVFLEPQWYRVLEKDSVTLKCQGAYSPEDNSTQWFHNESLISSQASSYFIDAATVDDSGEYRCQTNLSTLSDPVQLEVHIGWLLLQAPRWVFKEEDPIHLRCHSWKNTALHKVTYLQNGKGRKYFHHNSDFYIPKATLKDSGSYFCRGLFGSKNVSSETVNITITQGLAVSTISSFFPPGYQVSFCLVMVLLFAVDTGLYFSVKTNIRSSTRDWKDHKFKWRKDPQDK

B1: TG-1101 (TG Therapeutics, Inc.) (antibody, human IgG1, kappa)
heavy: not shown
light: QIVLSQSPAILSASPGEKVTMTCRASSSVSYMHWYQQKPGSSPKPWIYATSNLASGVPARFSGSGSGTSYSFTISRVEAEDAATYYCQQWTFNPPTFGGGTRLEIKRTVAAPSVFIFPPSDEQLKSGTASVVCLLNNFYPREAKVQWKVDNALQSGNSQESVTEQDSKDSTYSLSSTLTLSKADYEKHKVYACEVTHQGLSSPVTKSFNRGEC
Take B1: in assay [1], the “ADCC EC50, fold lower than OCREVUS” value is approximately 25 fold. For the same molecule, in assay [2], the “ADCC EC50 (Raji target cells, KILR CD16a effector cells)” value came to 0.00242 ng/mL. For the same molecule, the “EC50 of ADCC assay Using Primary NK Cells” value in assay [3] came to 49000 ng/mL. Further, the “CDC EC50 (Jeko-1 cells, rabbit complement)” value in assay [4] was found to be 670 ng/mL.

(Values after US11814439 (TG THERAPEUTICS, dated 2023).)
